Results: US20140058068A1 (UNIVERSITY OF MIAMI, published 2014)
Square brackets hold non-standard residues; d marks the D form. Ends that are not written are not given here. * marks the point of attachment. Desaminotyrosyl = O=C(CCc1ccc(O)cc1)*; NMeY = CN[C@@H](Cc1ccc(O)cc1)C(=O)O; Nle = CCCC[C@H](N)C(=O)O; Orn = NCCC[C@H](N)C(=O)O; Abu = CC[C@H](N)C(=O)O; Aoc = NCCCCCCCC(=O)O; Ava = NCCCCC(=O)O

B1: [Dat^1, D-Ala^2, Orn^12, Abu^15, Orn^21, Nle^27, Asp^28]hGH-RH(1-29)NH-CH3 (peptide)
peptide: [Desaminotyrosyl][dA]DAIFTNSYR[Orn]VL[Abu]QLSAR[Orn]LLQDI[Nle]DR-NHMe
SMILES: CCCC[C@H](NC(=O)[C@@H](NC(=O)[C@H](CC(=O)O)NC(=O)[C@H](CCC(N)=O)NC(=O)[C@H](CC(C)C)NC(=O)[C@H](CC(C)C)NC(=O)[C@H](CCCN)NC(=O)[C@H](CCCNC(=N)N)NC(=O)[C@H](C)NC(=O)[C@H](CO)NC(=O)[C@H](CC(C)C)NC(=O)[C@H](CCC(N)=O)NC(=O)[C@H](CC)NC(=O)[C@H](CC(C)C)NC(=O)[C@@H](NC(=O)[C@H](CCCN)NC(=O)[C@H](CCCNC(=N)N)NC(=O)[C@H](Cc1ccc(O)cc1)NC(=O)[C@H](CO)NC(=O)[C@H](CC(N)=O)NC(=O)[C@@H](NC(=O)[C@H](Cc1ccccc1)NC(=O)[C@@H](NC(=O)[C@H](C)NC(=O)[C@H](CC(=O)O)NC(=O)[C@@H](C)NC(=O)CCc1ccc(O)cc1)[C@@H](C)CC)[C@@H](C)O)C(C)C)[C@@H](C)CC)C(=O)N[C@@H](CC(=O)O)C(=O)N[C@@H](CCCNC(=N)N)C(=O)NC
B2: [Dat^1, D-Ala^2, Orn^12, Abu^15, Orn^21, Nle^27, Asp^28, Amc^30]hGH-RH(1-30)NH2 (peptide)
peptide: [Desaminotyrosyl][dA]DAIFTNSYR[Orn]VL[Abu]QLSAR[Orn]LLQDI[Nle]DR[Aoc]-NH2
SMILES: CCCC[C@H](NC(=O)[C@@H](NC(=O)[C@H](CC(=O)O)NC(=O)[C@H](CCC(N)=O)NC(=O)[C@H](CC(C)C)NC(=O)[C@H](CC(C)C)NC(=O)[C@H](CCCN)NC(=O)[C@H](CCCNC(=N)N)NC(=O)[C@H](C)NC(=O)[C@H](CO)NC(=O)[C@H](CC(C)C)NC(=O)[C@H](CCC(N)=O)NC(=O)[C@H](CC)NC(=O)[C@H](CC(C)C)NC(=O)[C@@H](NC(=O)[C@H](CCCN)NC(=O)[C@H](CCCNC(=N)N)NC(=O)[C@H](Cc1ccc(O)cc1)NC(=O)[C@H](CO)NC(=O)[C@H](CC(N)=O)NC(=O)[C@@H](NC(=O)[C@H](Cc1ccccc1)NC(=O)[C@@H](NC(=O)[C@H](C)NC(=O)[C@H](CC(=O)O)NC(=O)[C@@H](C)NC(=O)CCc1ccc(O)cc1)[C@@H](C)CC)[C@@H](C)O)C(C)C)[C@@H](C)CC)C(=O)N[C@@H](CC(=O)O)C(=O)N[C@@H](CCCNC(=N)N)C(=O)NCCCCCCCC(N)=O
notes: also called Peptide 21300
B3: [N-Me-Tyr^1, Orn^12, Abu^15, Orn^21, Nle^27, Asp^28, Amc^30]hGH-RH(1-30)NH2 (peptide)
peptide: [NMeY]ADAIFTNSYR[Orn]VL[Abu]QLSAR[Orn]LLQDI[Nle]DR[Aoc]-NH2
modifications: N-terminus assumed
SMILES: CCCC[C@H](NC(=O)[C@@H](NC(=O)[C@H](CC(=O)O)NC(=O)[C@H](CCC(N)=O)NC(=O)[C@H](CC(C)C)NC(=O)[C@H](CC(C)C)NC(=O)[C@H](CCCN)NC(=O)[C@H](CCCNC(=N)N)NC(=O)[C@H](C)NC(=O)[C@H](CO)NC(=O)[C@H](CC(C)C)NC(=O)[C@H](CCC(N)=O)NC(=O)[C@H](CC)NC(=O)[C@H](CC(C)C)NC(=O)[C@@H](NC(=O)[C@H](CCCN)NC(=O)[C@H](CCCNC(=N)N)NC(=O)[C@H](Cc1ccc(O)cc1)NC(=O)[C@H](CO)NC(=O)[C@H](CC(N)=O)NC(=O)[C@@H](NC(=O)[C@H](Cc1ccccc1)NC(=O)[C@@H](NC(=O)[C@H](C)NC(=O)[C@H](CC(=O)O)NC(=O)[C@H](C)NC(=O)[C@H](Cc1ccc(O)cc1)NC)[C@@H](C)CC)[C@@H](C)O)C(C)C)[C@@H](C)CC)C(=O)N[C@@H](CC(=O)O)C(=O)N[C@@H](CCCNC(=N)N)C(=O)NCCCCCCCC(N)=O
notes: also called Peptide 21301
B4: [Dat^1, Gln^8, Orn^12, Abu^15, Orn^21, Nle^27, Asp^28, Apa^30]hGH-RH(1-30)NH2 (peptide)
peptide: [Desaminotyrosyl]ADAIFTQSYR[Orn]VL[Abu]QLSAR[Orn]LLQDI[Nle]DR[Ava]-NH2
SMILES: CCCC[C@H](NC(=O)[C@@H](NC(=O)[C@H](CC(=O)O)NC(=O)[C@H](CCC(N)=O)NC(=O)[C@H](CC(C)C)NC(=O)[C@H](CC(C)C)NC(=O)[C@H](CCCN)NC(=O)[C@H](CCCNC(=N)N)NC(=O)[C@H](C)NC(=O)[C@H](CO)NC(=O)[C@H](CC(C)C)NC(=O)[C@H](CCC(N)=O)NC(=O)[C@H](CC)NC(=O)[C@H](CC(C)C)NC(=O)[C@@H](NC(=O)[C@H](CCCN)NC(=O)[C@H](CCCNC(=N)N)NC(=O)[C@H](Cc1ccc(O)cc1)NC(=O)[C@H](CO)NC(=O)[C@H](CCC(N)=O)NC(=O)[C@@H](NC(=O)[C@H](Cc1ccccc1)NC(=O)[C@@H](NC(=O)[C@H](C)NC(=O)[C@H](CC(=O)O)NC(=O)[C@H](C)NC(=O)CCc1ccc(O)cc1)[C@@H](C)CC)[C@@H](C)O)C(C)C)[C@@H](C)CC)C(=O)N[C@@H](CC(=O)O)C(=O)N[C@@H](CCCNC(=N)N)C(=O)NCCCCC(N)=O
notes: also called Peptide 22327
B5: [Dat^1, Gln^8, His^11, Orn^12, Abu^15, His^20, Orn^21, Nle^27, Asp^28]hGH-RH(1-29)NH-CH3 (peptide)
peptide: [Desaminotyrosyl]ADAIFTQSYH[Orn]VL[Abu]QLSAH[Orn]LLQDI[Nle]DR-NHMe
SMILES: CCCC[C@H](NC(=O)[C@@H](NC(=O)[C@H](CC(=O)O)NC(=O)[C@H](CCC(N)=O)NC(=O)[C@H](CC(C)C)NC(=O)[C@H](CC(C)C)NC(=O)[C@H](CCCN)NC(=O)[C@H](Cc1c[nH]cn1)NC(=O)[C@H](C)NC(=O)[C@H](CO)NC(=O)[C@H](CC(C)C)NC(=O)[C@H](CCC(N)=O)NC(=O)[C@H](CC)NC(=O)[C@H](CC(C)C)NC(=O)[C@@H](NC(=O)[C@H](CCCN)NC(=O)[C@H](Cc1c[nH]cn1)NC(=O)[C@H](Cc1ccc(O)cc1)NC(=O)[C@H](CO)NC(=O)[C@H](CCC(N)=O)NC(=O)[C@@H](NC(=O)[C@H](Cc1ccccc1)NC(=O)[C@@H](NC(=O)[C@H](C)NC(=O)[C@H](CC(=O)O)NC(=O)[C@H](C)NC(=O)CCc1ccc(O)cc1)[C@@H](C)CC)[C@@H](C)O)C(C)C)[C@@H](C)CC)C(=O)N[C@@H](CC(=O)O)C(=O)N[C@@H](CCCNC(=N)N)C(=O)NC
notes: also called Peptide 27413
B6: [N-Me-Tyr^1, D-Ala^2, Orn^12, Abu^15, Orn^21, Nle^27, Asp^28, Amc^30]hGH-RH(1-30)NH2 (peptide)
chain: [NMeY][dA]DAIFTNSYR[Orn]VL[Abu]QLSAR[Orn]LLQDI[Nle]DR[Aoc]-NH2
modifications: N-terminus assumed
SMILES: CCCC[C@H](NC(=O)[C@@H](NC(=O)[C@H](CC(=O)O)NC(=O)[C@H](CCC(N)=O)NC(=O)[C@H](CC(C)C)NC(=O)[C@H](CC(C)C)NC(=O)[C@H](CCCN)NC(=O)[C@H](CCCNC(=N)N)NC(=O)[C@H](C)NC(=O)[C@H](CO)NC(=O)[C@H](CC(C)C)NC(=O)[C@H](CCC(N)=O)NC(=O)[C@H](CC)NC(=O)[C@H](CC(C)C)NC(=O)[C@@H](NC(=O)[C@H](CCCN)NC(=O)[C@H](CCCNC(=N)N)NC(=O)[C@H](Cc1ccc(O)cc1)NC(=O)[C@H](CO)NC(=O)[C@H](CC(N)=O)NC(=O)[C@@H](NC(=O)[C@H](Cc1ccccc1)NC(=O)[C@@H](NC(=O)[C@H](C)NC(=O)[C@H](CC(=O)O)NC(=O)[C@@H](C)NC(=O)[C@H](Cc1ccc(O)cc1)NC)[C@@H](C)CC)[C@@H](C)O)C(C)C)[C@@H](C)CC)C(=O)N[C@@H](CC(=O)O)C(=O)N[C@@H](CCCNC(=N)N)C(=O)NCCCCCCCC(N)=O
B7: [Dat^1, Gln^8, Orn^12, Abu^15, Orn^21, Nle^27, Asp^28]hGH-RH(1-29)NH-CH3 (peptide)
peptide: [Desaminotyrosyl]ADAIFTQSYR[Orn]VL[Abu]QLSAR[Orn]LLQDI[Nle]DR-NHMe
SMILES: CCCC[C@H](NC(=O)[C@@H](NC(=O)[C@H](CC(=O)O)NC(=O)[C@H](CCC(N)=O)NC(=O)[C@H](CC(C)C)NC(=O)[C@H](CC(C)C)NC(=O)[C@H](CCCN)NC(=O)[C@H](CCCNC(=N)N)NC(=O)[C@H](C)NC(=O)[C@H](CO)NC(=O)[C@H](CC(C)C)NC(=O)[C@H](CCC(N)=O)NC(=O)[C@H](CC)NC(=O)[C@H](CC(C)C)NC(=O)[C@@H](NC(=O)[C@H](CCCN)NC(=O)[C@H](CCCNC(=N)N)NC(=O)[C@H](Cc1ccc(O)cc1)NC(=O)[C@H](CO)NC(=O)[C@H](CCC(N)=O)NC(=O)[C@@H](NC(=O)[C@H](Cc1ccccc1)NC(=O)[C@@H](NC(=O)[C@H](C)NC(=O)[C@H](CC(=O)O)NC(=O)[C@H](C)NC(=O)CCc1ccc(O)cc1)[C@@H](C)CC)[C@@H](C)O)C(C)C)[C@@H](C)CC)C(=O)N[C@@H](CC(=O)O)C(=O)N[C@@H](CCCNC(=N)N)C(=O)NC
notes: also called Peptide 27407

What follows are binders tested against T1, GHRH receptor of human pituitary membrane homogenates (human, UniProt Q02643 23-423) (assay: radioligand competition, 125I-JV-1-42 (~0.2 nM) as competitor, human pituitary membrane homogenates).
T1 construct: whole, on cells; Native receptor in pituitary membrane homogenates, not intact cells; also called hGH-RH receptor
T1 sequence (looked up): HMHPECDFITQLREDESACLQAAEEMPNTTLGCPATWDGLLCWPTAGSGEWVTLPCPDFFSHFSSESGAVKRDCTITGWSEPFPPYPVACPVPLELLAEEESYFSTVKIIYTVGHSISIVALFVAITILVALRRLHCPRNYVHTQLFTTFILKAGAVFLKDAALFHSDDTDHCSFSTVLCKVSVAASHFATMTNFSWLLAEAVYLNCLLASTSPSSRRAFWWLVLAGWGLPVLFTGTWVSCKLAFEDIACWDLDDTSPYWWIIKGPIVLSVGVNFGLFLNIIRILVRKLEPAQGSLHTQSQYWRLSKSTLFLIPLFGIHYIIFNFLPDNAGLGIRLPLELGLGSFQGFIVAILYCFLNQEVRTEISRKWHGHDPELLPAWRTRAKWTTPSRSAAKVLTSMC
Source text: Normal human pituitaries were purchased from the National Hormone and Peptide Program (A. F. Parlow, Los Angeles, County Harbor-UCLA Medical Center, Torrance, Calif.).
With [NMeY][dA]DAIFTQSYR[Orn]VL[Abu]QLSAR[Orn]LLQDI[Nle]DR-NHEt (also called Peptide 28420) [[N-Me-Tyr^1, D-Ala^2, Gln^8, Orn^12, Abu^15, Orn^21, Nle^27, Asp^28]hGH-RH(1-29)NH-CH2-CH3] the “Relative affinity (Binding potency) vs JI-38” value (shortened to “Relative affinity”) was 8.37 fold, JI-38 = 1. B1 was tested, and the IC50 was 3.35 nM and the “Relative affinity” value was 1.3 fold, JI-38 = 1. With B2 the IC50 was 3.61 nM and the “Relative affinity” value was 1.2 fold, JI-38 = 1. With [NMeY][dA]DAIFTTSYR[Orn]VL[Abu]QLSAR[Orn]LLQDI[Nle]DR-NHMe [[N-Me-Tyr^1, D-Ala^2, Thr^8, Orn^12, Abu^15, Orn^21, Nle^27, Asp^28]hGH-RH(1-29)NH-CH3] the IC50 was 0.83 nM and the “Relative affinity” value was 5.24 fold, JI-38 = 1. B3 was tested, and the IC50 was 2.99 nM and the “Relative affinity” value was 1.45 fold, JI-38 = 1. With B4 the IC50 was 1.99 nM and the “Relative affinity” value was 2.18 fold, JI-38 = 1. In the case of [NMeY]ADAIFTQSYR[Orn]VL[Abu]QLSAR[Orn]LLQDI[Nle]DR[Ava]-NH2 (also called Peptide 22325) [[N-Me-Tyr^1, Gln^8, Orn^12, Abu^15, Orn^21, Nle^27, Asp^28, Apa^30]hGH-RH(1-30)NH2], the IC50 is reported as 3.8 nM and the “Relative affinity” value is reported as 1.14 fold, JI-38 = 1. In the case of [NMeY]ADAIFTQSYR[Orn]VL[Abu]QLSAR[Orn]LLQDI[Nle]DR-NHMe (also called Peptide 27406) [[N-Me-Tyr^1, Gln^8, Orn^12, Abu^15, Orn^21, Nle^27, Asp^28]hGH-RH(1-29)NH-CH3], the IC50 is reported as 0.3 nM and the “Relative affinity” value is reported as 14.5 fold, JI-38 = 1. B5 was tested, and the IC50 was 2.45 nM and the “Relative affinity” value was 1.78 fold, JI-38 = 1. In the case of [NMeY]ADAIFTQSYR[Orn]VL[Abu]QLSAR[Orn]LLQDI[Nle]SR-NHMe [[N-Me-Tyr^1, Gln^8, Orn^12, Abu^15, Orn^21, Nle^27]hGH-RH(1-29)NH-CH3], the IC50 is reported as 1.08 nM and the “Relative affinity” value is reported as 4.03 fold, JI-38 = 1. For B6, the IC50 was 1.87 nM and the “Relative affinity” value was 2.32 fold, JI-38 = 1. For B7, the IC50 was 3 nM and the “Relative affinity” value was 1.45 fold, JI-38 = 1.
